Laboratory results reported in US20100255011A1 (University of Washington, published 2010).

T1: soluble recombinant CD46 (sCD46) (human, UniProt P15529 35-343)
T1 construct: Soluble form produced as described in Wang et al. 2007; also called soluble CD46
T1 sequence: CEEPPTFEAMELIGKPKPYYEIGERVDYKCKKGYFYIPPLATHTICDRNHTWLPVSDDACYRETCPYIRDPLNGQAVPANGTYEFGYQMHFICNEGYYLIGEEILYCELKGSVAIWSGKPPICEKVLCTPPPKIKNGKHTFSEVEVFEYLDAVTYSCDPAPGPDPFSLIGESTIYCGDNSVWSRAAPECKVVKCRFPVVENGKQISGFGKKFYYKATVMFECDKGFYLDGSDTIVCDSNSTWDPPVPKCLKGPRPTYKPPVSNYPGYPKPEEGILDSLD

T2: CD46 on the surface of human cells (HeLa, Raji, PBMC and others) (human, UniProt P15529 35-376)
T2 sequence: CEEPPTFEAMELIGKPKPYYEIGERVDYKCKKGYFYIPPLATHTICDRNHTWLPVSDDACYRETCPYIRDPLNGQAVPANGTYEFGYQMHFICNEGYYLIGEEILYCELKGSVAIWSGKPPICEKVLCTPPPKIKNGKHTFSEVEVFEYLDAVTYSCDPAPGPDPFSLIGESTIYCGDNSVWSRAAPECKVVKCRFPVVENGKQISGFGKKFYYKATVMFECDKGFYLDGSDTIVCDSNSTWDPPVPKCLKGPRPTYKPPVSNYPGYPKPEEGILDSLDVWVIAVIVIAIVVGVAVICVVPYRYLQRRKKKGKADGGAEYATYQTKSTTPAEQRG


What was measured:
[1] = target: soluble recombinant CD46 (sCD46) (human) (UniProt P15529); test: SPR, Biacore T100; biotinylated knob on streptavidin chip, sCD46 injected
[2] = target: soluble recombinant CD46 (sCD46) (human) (UniProt P15529); test: SPR, ratio of KDs
[3] = target: CD46 on the surface of human cells (HeLa, Raji, PBMC and others) (human) (UniProt P15529); test: cell-based or functional assay
[4] = target: T1, soluble recombinant CD46 (sCD46); test: SPR, Biacore T100; biotinylated knob on streptavidin chip, sCD46 injected
[5] = target: T2, CD46 on the surface of human cells …; test: cell-based or functional assay
[6] = target: T1, soluble recombinant CD46 (sCD46); test: SPR, ratio of KDs

Row | Molecule | Kd [1] | koff [1] | kon [1] | fold higher affinity than the wild-type fiber knob protein [2] | further results
1 | Ad35 fiber knob mutant Asn217Asp + Thr245Pro + Ile256Leu | 4.82 nM | 0.0097 s⁻¹ | 2.25e+06 M⁻¹ s⁻¹ | – | –
2 | Ad35 fiber knob mutant Asp207Gly | 1.77 nM | 0.0034 s⁻¹ | 3.51e+06 M⁻¹ s⁻¹ | 8.3 fold | –
3 | Ad35 fiber knob mutant Asp207Gly + Thr226Ala | 1.41 nM | 0.0026 s⁻¹ | 1.97e+06 M⁻¹ s⁻¹ | – | –
4 | Ad35 fiber knob mutant Asp207Gly + Thr245Ala + Ile256Leu | 0.92 nM | 0.0018 s⁻¹ | 1.96e+06 M⁻¹ s⁻¹ | – | –
5 | Ad35 fiber knob mutant Ile256Leu | 11 nM | 0.0236 s⁻¹ | 2.13e+06 M⁻¹ s⁻¹ | 1.3 fold | –
6 | Ad35 fiber knob mutant Thr245Ala | 7.64 nM | 0.0173 s⁻¹ | 2.25e+06 M⁻¹ s⁻¹ | 1.9 fold | –
7 | mouse anti-human CD46 antibody, clone MEM-258 (AbD Serotec) | – | – | – | – | level of CD46 on the surface of HeLa cells (flow cytometry), decline [3]: 30%; viability of Raji cells with NHS (alone or with daclizumab), decline [3]: 30%
8 | wild-type Ad35 fiber knob protein (other, Recombinant, made in E. coli, homotrimer; Biotinylated (EZ-Link Sulfo-NHS-LC-Biotin) for SPR; also called Ad35K; wild-type Ad35K) HHHHHHGDICIKDSINTLWTGINPPPNCQIVENTNTNDGKLTLVLVKNGGLVNGYVSLVGVSDTVNQMFTQKTANIQLRLYFDSSGNLLTDESDLKIPLKNKSSTATSETVASSKAFMPSTTAYPFNTTTRDSENYIHGICYYMTSYDRSLFPLNISIMLNSRMISSNVAYAIQFEWNLNASESPESNIATLTTSPFFFSYITEDDN | – | – | – | – | Kd [4]: 14.6 nM; koff [4]: 0.0234 s⁻¹; kon [4]: 1.52e+06 M⁻¹ s⁻¹; killing of Raji cells by rituximab/NHS, increase against rituximab/NHS only [5]: ~2 fold
9 | mutant Ad35 fiber knob protein with Asp207Gly and Thr245Ala substitutions (Ad35K++) (other, Recombinant, E. coli, spontaneously forms trimers; Biotinylated for SPR; also called Asp207Gly + Thr245Ala; Ad35K++ polypeptide) HHHHHHGDICIKDSINTLWTGINPPPNCQIVENTNTNDGKLTLVLVKNGGLVNGYVSLVGVSDTVNQMFTQKTANIQLRLYFDSSGNLLTGESDLKIPLKNKSSTATSETVASSKAFMPSTTAYPFNTATRDSENYIHGICYYMTSYDRSLFPLNISIMLNSRMISSNVAYAIQFEWNLNASESPESNIATLTTSPFFFSYITEDDN | – | – | – | – | Kd [4]: 0.63 nM; koff [4]: 0.0017 s⁻¹; kon [4]: 2.48e+06 M⁻¹ s⁻¹; fold higher affinity than the wild-type Ad35 [6]: 23.2 fold; decrease of mean CD46 fluorescence intensity on PBMCs [5]: 1.97 fold; decrease of mean CD46 fluorescence intensity on Raji cells [5]: 7.54 fold; fold decrease in GFP expression after Ad35-GFP infection of HeLa cells pre-incubated 72 hours earlier, against Ad35K-279 [5]: 1000 fold; killing of Raji cells by rituximab/NHS, increase against rituximab/NHS only [5]: ~10 fold
